In article PMC9198467 (The Journal of Biological Chemistry, 2022):

Biological target: His-DnaB helicase (E. coli, UniProt P0ACB0 1-471)
Assay: pull-down

Chain of His-DnaB helicase (P0ACB0 whole entry): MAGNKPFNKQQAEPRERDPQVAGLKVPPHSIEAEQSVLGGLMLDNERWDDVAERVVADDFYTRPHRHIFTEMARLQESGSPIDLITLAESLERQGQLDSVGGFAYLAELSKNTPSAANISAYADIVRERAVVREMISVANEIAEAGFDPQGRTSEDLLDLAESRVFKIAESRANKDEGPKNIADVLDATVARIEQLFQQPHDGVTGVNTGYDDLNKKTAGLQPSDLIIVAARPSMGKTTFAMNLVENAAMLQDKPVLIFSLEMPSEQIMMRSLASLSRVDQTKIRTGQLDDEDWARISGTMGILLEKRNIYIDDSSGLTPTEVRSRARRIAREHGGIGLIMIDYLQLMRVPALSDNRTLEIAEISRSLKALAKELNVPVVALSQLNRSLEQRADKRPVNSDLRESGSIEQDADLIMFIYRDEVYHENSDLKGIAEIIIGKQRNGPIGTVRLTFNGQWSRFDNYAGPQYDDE

B1: Escherichia coli DnaA, ATP-bound form (ATP–DnaA), wild type (natural protein, E. coli, UniProt P03004 1-467, looked up)
chain: MSLSLWQQCLARLQDELPATEFSMWIRPLQAELSDNTLALYAPNRFVLDWVRDKYLNNINGLLTSFCGADAPQLRFEVGTKPVTQTPQAAVTSNVAAPAQVAQTQPQRAAPSTRSGWDNVPAPAEPTYRSNVNVKHTFDNFVEGKSNQLARAAARQVADNPGGAYNPLFLYGGTGLGKTHLLHAVGNGIMARKPNAKVVYMHSERFVQDMVKALQNNAIEEFKRYYRSVDALLIDDIQFFANKERSQEEFFHTFNALLEGNQQIILTSDRYPKEINGVEDRLKSRFGWGLTVAIEPPELETRVAILMKKADENDIRLPGEVAFFIAKRLRSNVRELEGALNRVIANANFTGRAITIDFVREALRDLLALQEKLVTIDNIQKTVAEYYKIKVADLLSKRRSRSVARPRQMAMALAKELTNHSLPEIGDAFGGRDHTTVLHACRKIEQLREESHDIKEDFSNLIRTLSS
binding result: binds
